Experimental data: paper PMC9949256, “Integrated analyses reveal a hinge glycan regulates coronavirus spike tilting and virus infectivity” (Research Square, 2023)

Molecular target: the molecule itself
Assay: cryo-EM structure; cryoET and subtomogram averaging of spikes in situ on vitrified, chemically unfixed, purified HCoV-NL63 virions; C3 symmetry imposed; crown 6.9 Å, stalk with membrane 11.5 Å; focused classification of RBD and domain 0

B1: human coronavirus NL63 (HCoV-NL63) spike glycoprotein (S) (natural protein)
chain: CNSNANLSMLQLGVPDNSSTIVTGLLPTHWFCANQSTSVYSANGFFYIDVGNHRSAFALHTGYYDANQYYIYVTNEIGLNASVTLKICKFSRNTTFDFLSNASSSFDCIVNLLFTEQLGAPLGITISGETVRLHLYNVTRTFYVPAAYKLTKLSVKCYFNYSCVFSVVNATVTVNVTTHNGRVVNYTVCDDCNGYTDNIFSVQQDGRIPNGFPFNNWFLLTNGSTLVDGVSRLYQPLRLTCLWPVPGLKSSTGFVYFNATGSDVNCNGYQHNSVVDVMRYNLNFSANSLDNLKSGVIVFKTLQYDVLFYCSNSSSGVLDTTIPFGPSSQPYYCFINSTINTTHVSTFVGILPPTVREIVVARTGQFYINGFKYFDLGFIEAVNFNVTTASATDFWTVAFATFVDVLVNVSATNIQNLLYCDSPFEKLQCEHLQFGLQDGFYSANFLDDNVLPETYVALPIYYQHTDINFTATASFGGSCYVCKPHQVNISLNGNTSVCVRTSHFSIRYIYNRVKSGSPGDSSWHIYLKSGTCPFSFSKLNNFQKFKTICFSTVEVPGSCNFPLEATWHYTSYTIVGALYVTWSEGNSITGVPYPVSGIREFSNLVLNNCTKYNIYDYVGTGIIRSSNQSLAGGITYVSNSGNLLGFKNVSTGNIFIVTPCNQPDQVAVYQQSIIGAMTAVNESRYGLQNLLQLPNFYYVSNGGNNCTTAVMTYSNFGICADGSLIPVRPRNSSDNGISAIITANLSIPSNWTTSVQVEYLQITSTPIVVDCATYVCNGNPRCKNLLKQYTSACKTIEDALRLSAHLETNDVSSMLTFDSNAFSLANVTSFGDYNLSSVLPQRNIRSSRIAGRSALEDLLFSKVVTSGLGTVDVDYKSCTKGLSIADLACAQYYNGIMVLPGVADAERMAMYTGSLIGGMVLGGLTSAAAIPFSLALQARLNYVALQTDVLQENQKILAASFNKAINNIVASFSSVNDAITQTAEAIHTVTIALNKIQDVVNQQGSALNHLTSQLRHNFQAISNSIQAIYDRLDSIQADQQVDRLITGRLAALNAFVSQVLNKYTEVRGSRRLAQQKINECVKSQSNRYGFCGNGTHIFSIVNSAPDGLLFLHTVLLPTDYKNVKAWSGICVDGIYGYVLRQPNLVLYSDNGVFRVTSRVMFQPRLPVLSDFVQIYNCNVTFVNISRVELHTVIPDYVDVNKTLQEFAQNLPKYVKPNFDLTPFNLTYLNLSSELKQLEAKTASLFQTTVELQGLIDQINSTYVDLKLLNRFENYIKWPWWVWLIISVVFVVLLSLLVFCCLSTGCCGCCNCLTSSMRGCCDCGSTKLPYYEFEKVHVQ
modifications: N-linked glycans at 39 canonical N-glycosylation sites (36 on the crown; N1242, N1247 and N1277 on the stalk), mostly high-mannose
notes: Spike glycoprotein S of human coronavirus NL63, full-length S in the viral envelope; ectodomain residues 1 to 1297 (crown model 1-1224, stalk 1216-1297); Trimeric spike imaged in situ on intact virions; The atomic model covers only the crown (to residue 1224); The stalk model is predicted (I-TASSER, AlphaFold, CCBuilder) and fitted by MDFF; also called S trimer
stoichiometry N: 3
